PMC6792138

Tested on: PthA4AT (7.5-repeat TAL effector) (Xanthomonas citri ssp. citri variant AT)
Assay: PBM
Settings: not stated; PBM performed as in Godoy et al. 2011

Substance | binding signal [E-score]
PBM probes with ATATCACCT | 0.46
PBM probes with ATTATTACC | 0.456
PBM probes with TATAACCTT | 0.462
PBM probes with TATCACCTT | 0.476
PBM probes with TATCGCCTT | 0.454
PBM probes with TATTACCCC | 0.458
PBM probes with TATTACCTC | 0.466
PBM probes with TATTACCTT | 0.481
PBM probes with TTATCACCT | 0.464
PBM probes with TTATTACCC | 0.46
PBM probes with TTATTACCT | 0.476
